Laboratory results as given in the supplement of paper PMC9112550, “Optimization of the antimicrobial peptide Bac7 by deep mutational scanning” (BMC Biology, 2022).

Test system: Escherichia coli TOP10
Experiment: shrunken log2 fold change of peptide-encoding DNA abundance (4.5 h post-induction vs induction); higher = less antimicrobial activity (less host growth inhibition)
Conditions: time post-induction: 4.5 h; library: site-saturation at positions 5, 18, 19, 20
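Also: peptides expressed intracellularly from a pBAD plasmid library in pooled LB shake-flask culture, induced with 0.3% L-arabinose, DNA abundance read by NGS, three biological replicates, DESeq2 with apeglm shrinkage.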

| Sequence | shrunken log2 fold change |
| --- | --- |
| RRIRVRPPRLPRPRPRPAPVPRP | 0.349 |
| RRIRIRPPRLPRPRPRPWRVPRP | -0.0531 |
| RRIRHRPPRLPRPRPRPTMRPRP | 0.402 |
| RRIRCRPPRLPRPRPRPKKWPRP | 0.00275 |
| RRIRRRPPRLPRPRPRPQVMPRP | 0.0874 |
| RRIRCRPPRLPRPRPRPAKAPRP | 0.162 |
| RRIRGRPPRLPRPRPRPHDLPRP | -0.00843 |
| RRIRLRPPRLPRPRPRPCAFPRP | -0.295 |
| RRIRCRPPRLPRPRPRPYRFPRP | -0.746 |
| RRIRYRPPRLPRPRPRPWNKPRP | -0.00965 |
| RRIRSRPPRLPRPRPRPVCDPRP | 0.327 |
| RRIRWRPPRLPRPRPRPEGNPRP | 0.29 |
| RRIRRRPPRLPRPRPRPQHNPRP | 0.0256 |
| RRIRGRPPRLPRPRPRPPCPPRP | 0.86 |
| RRIRKRPPRLPRPRPRPYGEPRP | 0.0585 |
| RRIRKRPPRLPRPRPRPAHGPRP | 0.502 |
| RRIRERPPRLPRPRPRPPECPRP | 0.0263 |
| RRIRLRPPRLPRPRPRPAECPRP | -0.167 |
| RRIRWRPPRLPRPRPRPGCAPRP | 0.948 |
| RRIRHRPPRLPRPRPRPSEKPRP | -0.144 |
| RRIRRRPPRLPRPRPRPKVQPRP | -0.0356 |
| RRIRARPPRLPRPRPRPKTHPRP | 0.227 |
| RRIRWRPPRLPRPRPRPGEAPRP | 0.799 |
| RRIRKRPPRLPRPRPRPLCGPRP | 0.367 |
| RRIRMRPPRLPRPRPRPPHRPRP | 0.567 |

| Sequence | shrunken log2 fold change |
| --- | --- |
| RRIRVRPPRLPRPRPRPKTWPRP | 0.063 |
| RRIRHRPPRLPRPRPRPSKQPRP | -0.166 |
| RRIRPRPPRLPRPRPRPKIDPRP | 0.0162 |
| RRIRSRPPRLPRPRPRPKTWPRP | -0.0488 |
| RRIRLRPPRLPRPRPRPYNDPRP | -0.0858 |
| RRIRNRPPRLPRPRPRPQSYPRP | 0.0549 |
| RRIRLRPPRLPRPRPRPFAFPRP | -0.442 |
| RRIRLRPPRLPRPRPRPTRCPRP | -0.119 |
| RRIRYRPPRLPRPRPRPCREPRP | -0.152 |
| RRIRQRPPRLPRPRPRPLYGPRP | 0.0686 |
| RRIRQRPPRLPRPRPRPCHMPRP | -0.519 |
| RRIRHRPPRLPRPRPRPWACPRP | -0.051 |
| RRIRGRPPRLPRPRPRPIQIPRP | -0.0799 |
| RRIRGRPPRLPRPRPRPKNQPRP | 0.551 |
| RRIRGRPPRLPRPRPRPPASPRP | 1.07 |
| RRIRTRPPRLPRPRPRPGGWPRP | 1.23 |
| RRIRGRPPRLPRPRPRPIHCPRP | -0.0922 |
| RRIRTRPPRLPRPRPRPNIGPRP | -0.0888 |
| RRIRSRPPRLPRPRPRPNYNPRP | -0.904 |
| RRIRNRPPRLPRPRPRPYRCPRP | -0.153 |
| RRIRRRPPRLPRPRPRPDMLPRP | -0.0772 |
| RRIRLRPPRLPRPRPRPMAQPRP | -0.00088 |
| RRIRYRPPRLPRPRPRPTGQPRP | 0.0557 |
| RRIRDRPPRLPRPRPRPESKPRP | 0.0201 |
| RRIRVRPPRLPRPRPRPWAGPRP | 0.116 |

| Sequence | shrunken log2 fold change |
| --- | --- |
| RRIRTRPPRLPRPRPRPEMCPRP | -0.00146 |
| RRIRERPPRLPRPRPRPTLMPRP | 0.0249 |
| RRIRRRPPRLPRPRPRPNSNPRP | -0.302 |
| RRIRRRPPRLPRPRPRPFMQPRP | -0.0994 |
| RRIRWRPPRLPRPRPRPHPGPRP | -0.0288 |
| RRIRSRPPRLPRPRPRPIHLPRP | 0.0485 |
| RRIRDRPPRLPRPRPRPKQQPRP | -0.053 |
| RRIRMRPPRLPRPRPRPGSSPRP | 0.198 |
| RRIRHRPPRLPRPRPRPHTNPRP | -0.672 |
| RRIRFRPPRLPRPRPRPFKPPRP | -0.147 |
| RRIRSRPPRLPRPRPRPVAAPRP | 0.432 |
| RRIRQRPPRLPRPRPRPEKRPRP | 0.00771 |
| RRIRIRPPRLPRPRPRPAHGPRP | 0.188 |
| RRIRLRPPRLPRPRPRPVFAPRP | 0.223 |
| RRIRTRPPRLPRPRPRPTGLPRP | -0.0841 |
| RRIRNRPPRLPRPRPRPNKCPRP | -0.466 |
| RRIRHRPPRLPRPRPRPCMIPRP | -0.277 |
| RRIRYRPPRLPRPRPRPVYNPRP | -0.394 |
| RRIRMRPPRLPRPRPRPEYIPRP | 0.0145 |
| RRIRIRPPRLPRPRPRPRSWPRP | 0.394 |
| RRIRRRPPRLPRPRPRPLDVPRP | 0.179 |
| RRIRHRPPRLPRPRPRPNLSPRP | 0.28 |
| RRIRSRPPRLPRPRPRPSWYPRP | -0.745 |
| RRIRRRPPRLPRPRPRPYFFPRP | -0.0972 |
| RRIRSRPPRLPRPRPRPYKPPRP | -0.195 |

| Sequence | shrunken log2 fold change |
| --- | --- |
| RRIRNRPPRLPRPRPRPIKPPRP | -0.00904 |
| RRIRFRPPRLPRPRPRPIFIPRP | -0.777 |
| RRIRWRPPRLPRPRPRPNNAPRP | -0.295 |
| RRIRPRPPRLPRPRPRPNLKPRP | -0.0156 |
| RRIRVRPPRLPRPRPRPVVFPRP | 0.00477 |
| RRIRYRPPRLPRPRPRPSAIPRP | -0.939 |
| RRIRNRPPRLPRPRPRPKKVPRP | -0.0914 |
| RRIRVRPPRLPRPRPRPHTRPRP | -0.178 |
| RRIRHRPPRLPRPRPRPQLWPRP | 0.0534 |
| RRIRYRPPRLPRPRPRPKVTPRP | -0.114 |
| RRIRRRPPRLPRPRPRPYCYPRP | -0.101 |
| RRIRCRPPRLPRPRPRPMKRPRP | -0.176 |
| RRIRERPPRLPRPRPRPVWPPRP | 0.0958 |
| RRIRMRPPRLPRPRPRPSTGPRP | 0.17 |
| RRIRMRPPRLPRPRPRPPPPPRP | 2.05 |
| RRIRVRPPRLPRPRPRPQRYPRP | -0.883 |
| RRIRYRPPRLPRPRPRPRDFPRP | -0.161 |
| RRIRMRPPRLPRPRPRPREKPRP | 1.19 |
| RRIRIRPPRLPRPRPRPMTNPRP | -0.108 |
| RRIRRRPPRLPRPRPRPGKFPRP | 0.284 |
| RRIRHRPPRLPRPRPRPVSCPRP | 0.011 |
| RRIRVRPPRLPRPRPRPDCGPRP | -0.0382 |
| RRIRGRPPRLPRPRPRPFQQPRP | -0.0372 |
| RRIRMRPPRLPRPRPRPRFNPRP | 0.148 |
| RRIRWRPPRLPRPRPRPMQLPRP | 0.12 |

| Sequence | shrunken log2 fold change |
| --- | --- |
| RRIRARPPRLPRPRPRPSVNPRP | -0.383 |
| RRIRGRPPRLPRPRPRPWPRPRP | 0.37 |
| RRIRKRPPRLPRPRPRPWPTPRP | 0.103 |
| RRIRGRPPRLPRPRPRPTIGPRP | 0.589 |
| RRIRSRPPRLPRPRPRPEHNPRP | -0.0911 |
| RRIRERPPRLPRPRPRPYCYPRP | -0.979 |
| RRIRCRPPRLPRPRPRPFAFPRP | -0.169 |
| RRIRRRPPRLPRPRPRPHWMPRP | 0.122 |
| RRIRRRPPRLPRPRPRPPSYPRP | 0.26 |
| RRIRDRPPRLPRPRPRPYYAPRP | -0.201 |
| RRIRMRPPRLPRPRPRPTIPPRP | -0.316 |
| RRIRMRPPRLPRPRPRPIWVPRP | -0.0406 |
| RRIRQRPPRLPRPRPRPLFGPRP | 0.107 |
| RRIRCRPPRLPRPRPRPNLKPRP | -0.585 |
| RRIRVRPPRLPRPRPRPSHCPRP | 0.109 |
| RRIRNRPPRLPRPRPRPPNFPRP | -0.0236 |
| RRIRPRPPRLPRPRPRPKKLPRP | -0.0688 |
| RRIRERPPRLPRPRPRPGLQPRP | 0.103 |
| RRIRLRPPRLPRPRPRPIRHPRP | -0.144 |
| RRIRRRPPRLPRPRPRPHGNPRP | 0.166 |
| RRIRVRPPRLPRPRPRPIRNPRP | -0.0718 |
| RRIRDRPPRLPRPRPRPNTNPRP | -0.448 |
| RRIRTRPPRLPRPRPRPDDTPRP | -0.12 |
| RRIRKRPPRLPRPRPRPPKLPRP | 0.658 |
| RRIRDRPPRLPRPRPRPPWWPRP | 0.461 |

| Sequence | shrunken log2 fold change |
| --- | --- |
| RRIRGRPPRLPRPRPRPSAWPRP | 1.94 |
| RRIRLRPPRLPRPRPRPWCIPRP | 0.0272 |
| RRIRFRPPRLPRPRPRPASQPRP | -0.0114 |
| RRIRMRPPRLPRPRPRPEWSPRP | 0.721 |
| RRIRQRPPRLPRPRPRPQFRPRP | -0.0194 |
| RRIRIRPPRLPRPRPRPCWQPRP | -0.211 |
| RRIRQRPPRLPRPRPRPFKQPRP | -0.24 |
| RRIRMRPPRLPRPRPRPPWTPRP | 1.15 |
| RRIRTRPPRLPRPRPRPFWIPRP | -0.34 |
| RRIRFRPPRLPRPRPRPIVSPRP | 0.303 |
| RRIRQRPPRLPRPRPRPAPNPRP | 0.561 |
| RRIRFRPPRLPRPRPRPDRHPRP | -0.164 |
| RRIRKRPPRLPRPRPRPPVKPRP | 0.181 |
| RRIRPRPPRLPRPRPRPSAPPRP | 0.017 |
| RRIRNRPPRLPRPRPRPAEWPRP | 0.412 |
| RRIRCRPPRLPRPRPRPDCRPRP | -0.195 |
| RRIRKRPPRLPRPRPRPECYPRP | -0.0555 |
| RRIRTRPPRLPRPRPRPKDQPRP | -0.0284 |
| RRIRTRPPRLPRPRPRPIICPRP | -0.121 |
| RRIRCRPPRLPRPRPRPLRPPRP | 0.815 |
| RRIRRRPPRLPRPRPRPAFYPRP | 0.654 |
| RRIRERPPRLPRPRPRPHSVPRP | -0.00145 |
| RRIRIRPPRLPRPRPRPDPYPRP | -0.555 |
| RRIRRRPPRLPRPRPRPAITPRP | -0.0525 |
| RRIRYRPPRLPRPRPRPFGFPRP | -0.918 |
